The text below walks through data of publication PMC11077089, “Molecular basis of A. thaliana KEOPS complex in biosynthesizing tRNA t6A”.

Data set [1] concerns the target T1, KAE1;BUD32;CGI121;PCC1 R73D (Arabidopsis thaliana;Arabidopsis …, UniProt O49653;Q94K14;Q6NMZ4;Q8GWD7 1-353;1-226;1-172;1-96, |||R73D).
T1 sequence 1: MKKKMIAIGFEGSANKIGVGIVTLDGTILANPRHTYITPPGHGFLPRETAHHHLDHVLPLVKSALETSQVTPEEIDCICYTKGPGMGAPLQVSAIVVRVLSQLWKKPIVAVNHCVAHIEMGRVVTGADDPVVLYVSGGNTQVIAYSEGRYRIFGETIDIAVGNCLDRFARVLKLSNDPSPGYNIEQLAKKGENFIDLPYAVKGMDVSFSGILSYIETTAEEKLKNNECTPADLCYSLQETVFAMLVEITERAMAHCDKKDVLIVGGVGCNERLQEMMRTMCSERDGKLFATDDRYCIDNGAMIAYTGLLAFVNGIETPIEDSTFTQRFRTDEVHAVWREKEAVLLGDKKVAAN
T1 sequence 2: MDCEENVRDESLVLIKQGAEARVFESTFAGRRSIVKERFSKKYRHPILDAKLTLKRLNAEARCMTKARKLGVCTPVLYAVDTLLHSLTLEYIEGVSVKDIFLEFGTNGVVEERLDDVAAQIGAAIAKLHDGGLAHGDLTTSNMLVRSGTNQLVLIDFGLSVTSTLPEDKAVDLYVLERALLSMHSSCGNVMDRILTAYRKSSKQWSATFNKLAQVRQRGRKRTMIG
T1 sequence 3: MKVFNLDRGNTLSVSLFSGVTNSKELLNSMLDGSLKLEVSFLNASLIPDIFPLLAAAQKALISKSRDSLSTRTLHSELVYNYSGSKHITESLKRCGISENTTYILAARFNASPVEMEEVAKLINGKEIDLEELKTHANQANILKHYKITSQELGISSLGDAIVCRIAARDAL
T1 sequence 4: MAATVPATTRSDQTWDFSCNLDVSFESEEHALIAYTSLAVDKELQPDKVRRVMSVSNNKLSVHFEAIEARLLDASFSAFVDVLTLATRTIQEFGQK
Nature of the data set: MST; Fig S4 legend gives ~372; MST: 20 mM PBS pH 7.5, 300 mM NaCl, 0.05% Tween 20, 25 C, 50 nM RNA; EMSA: 20 mM Tris-HCl pH 7.5, 300 mM NaCl, 5 mM b-mercaptoethanol, 20% glycerol, agarose gel in Tris-glycine pH 8.0 (8.5 for FAM-RNA), 4 C. Particulars: protein: recombinant;recombinant;recombinant;recombinant; tags: none (6His on partner PCC1);none (6His on partner CGI121);6His (C-term);6His (C-term); chain copies: 2;2;2;2; label: 5' 6-FAM; tRNA cloverleaf. Background: A gel shift assay detects complexes by their altered migration in electrophoresis.

In data set [2] the target is T2, KAE1 H117A;BUD32;CGI121;PCC1 (Arabidopsis thaliana;Arabidopsis …, UniProt O49653;Q94K14;Q6NMZ4;Q8GWD7 1-353;1-226;1-172;1-96, H117A|||).
T2 sequence 1: T1 sequence 1 with H117A
T2 sequence 2: T1 sequence 2
T2 sequence 3: T1 sequence 3
T2 sequence 4: T1 sequence 4 with D73R
Nature of the data set: EMSA; 1:5 RNA:protein; MST: 20 mM PBS pH 7.5, 300 mM NaCl, 0.05% Tween 20, 25 C, 50 nM RNA; EMSA: 20 mM Tris-HCl pH 7.5, 300 mM NaCl, 5 mM b-mercaptoethanol, 20% glycerol, agarose gel in Tris-glycine pH 8.0 (8.5 for FAM-RNA), 4 C. Particulars: protein: recombinant;recombinant;recombinant;recombinant; tags: ;none (6His on partner CGI121);6His (C-term);6His (C-term); chain copies: 2;2;2;2; label: 5' 6-FAM; tRNA cloverleaf.

The target of data set [3] is T3, KAE1 A231G;BUD32;CGI121;PCC1 (Arabidopsis thaliana;Arabidopsis …, UniProt O49653;Q94K14;Q6NMZ4;Q8GWD7 1-353;1-226;1-172;1-96, A231G|||).
T3 sequence 1: T1 sequence 1 with A231G
T3 sequence 2: T1 sequence 2
T3 sequence 3: T1 sequence 3
T3 sequence 4: T1 sequence 4 with D73R
The data set is described as above. Particulars: protein: recombinant;recombinant;recombinant;recombinant; tags: ;none (6His on partner CGI121);6His (C-term);6His (C-term); chain copies: 2;2;2;2; label: 5' 6-FAM; tRNA cloverleaf.

Where a chain is given by its changes, count along the chain named.

B1: 5'-6FAM-tRNAArgCCU (structured_RNA)
RNA: GCGCCUGUAGCUCAGUGGAUAGAGCGUCUGUUUCCUAAGCAGAAGGUCGUAGGUUCGACCCCUACCUGGCGCGCCA
As usually defined, the Kd is the free concentration of one partner at which half of the binding sites on the other are occupied at equilibrium, for simple one-to-one binding. Consider B1, for which the Kd in data set [1] was 353 ± 40 µM. Besides, the binding result in data set [2] and in data set [3] was “binds” throughout.
